# Data taken from the nanobody polyreactivity screen of Harvey et al. (2022).
# Assay: yeast display, Sf9 membrane polyspecificity reagent, FACS + sequencing; frameworks hold sequencing errors
# Method in brief: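 A nanobody's polyreactivity label depends on the gate it was sorted from. Yeast display cells were stained with 10% biotinylated, detergent-solubilized Sf9 membrane reagent for 1 hour at 4 °C, enriched on streptavidin microbeads and sorted by FACS. The low and high (top ~1%) gates were set on anti-HA fluorescence for expression and streptavidin fluorescence for reagent binding.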
row,Sequence,polyreactivity (PSR sort gate)
1,QVQLQESGGGLVQAGGSLRLSCAASGSISLGDNMGWYRQAPGKEREFVATISVGGITYYVDSVKGRFTISRDIAKNTVYLQMNSLKPEDTAVYYCAALDIYYFRYYYWGQGTQVTVSS,low polyreactivity
2,QVQLQESGGGLVQAGGSLRLSCAASGSISRLDYMGWYRQASGKERELVAAIDNGSTTYYADSVKGRLTISRDNAKYTVYLQMNSLKPADTAVYFCAAVRGRGGTHAYWGQGTQVTVSG,low polyreactivity
3,QVQLQESGGGLVQAGGSLRLSCAASGSISSRDAMGWYRQAPGKEREFVATIASGTTTYYADSVKGSFTISRDNAENTVYLQTYRLKPEDTAVYYCAAPTIQIYPFYYWGQGTQVNVSS,high polyreactivity
4,QVQLQESGGGLVQAGGSLRLSCAASGSNFDTPTMGWYRQAPGKERELVASIAYDDNTYYADSVKGRFTISRYNAKNTVYLQMNSLKPGETAVYYCAVTDRIYYYFVYWGQGTRVTVSS,high polyreactivity
5,QVQLQESGGGLVQAGGSLRLSCAASGTFSPLPAMGWYRQAPGKERECVAGNDTGAITNYADSVKGRFTISRDNAKNTVYLQMNSLKPDDTAVYYCAVFPAAYVYYVRYYTYWGQGTQVTVCS,low polyreactivity
6,QVQLQESGGGLVQAGGSLRLSCAASGTIFRFRYMGWHRQAPGKERELVAGINGGTTTYYADSVIGRFTISRDNAKNTVYLQMNSLKPEDTAVYYCAADVNYYQHRLYYWGQGTQVTVSS,low polyreactivity
7,QVQLQESGGGLVQAGGSLRLSCAASGTIFRISDMGSYRQAPGKDLEFVAAITYGANTYYADSGKGRFTISRDNAKNTVYLQMNSLKPEDTAVYYCAVPPVKETILDYWGQGTQVTVSS,low polyreactivity
8,QVQLQESGGGLVQAGGSLRLSCAASGTIFTARFMGWYRQAPGKERELVATITDGGNTNHADSVKGRFTISRDNAKNTVYLQMNSLKPEDAAVDYCAAGEVDNDTLLYWGQGSQVTVSS,low polyreactivity
9,QVQLQESGGGLVQAGGSLRLSCAASGTIFWLWAMGWYCQAPGKERELVASISSGGTTYHADSVKGRFTISRDNAKNTVYLQMNSLKPEDTAVYYSAAFYVATAKLGFWGQGSQVTVSS,low polyreactivity
10,QVQLQESGGGLVQAGGSLRLSCAASGTISDSGLMGWYRQAPGKERELVAGISSGGITNYADSVKGRFTISRDNAKNTVYLQMKSLKPEDTAVYWGQGTQVTVSS,low polyreactivity
11,QVQLQESGGGLVQAGGSLRLSCAASGTISDSGLMGWYRQAPGKERELVAGISSGGITNYADSVKGRFTISRDNAKNTVYMQMNSLKPEDTAVYWGQGSQVTVSS,low polyreactivity
12,QVQLQESGGGLVQAGGSLRLSCAASGTISPLPAMGWYRQAPGKEREFVAGIDTGAITNYADSVKGRFTISRDNAKNTVYLQMISLKPEDTAVYYCAVFPAAYYYYERFYTYWGQGTQVTVSS,low polyreactivity
13,QVQLQESGGGLVQAGGSLRLSCAASGTISPLPAMGWYRQAPGKEREFVAGIDTGAITNYADSVKGRFTISRDNAKNTVYLQMNSLKPEDTPVYYCAATFYYSGHDDYWGQGTQVPVSS,low polyreactivity
14,QVQLQESGGGLVQAGGSLRLSCAASGTISQEDWMGLYRQAPGKEREFVAAIGLGSNTNYADSLKGRFTISRDNAKNTVYLQMNSLKPEDTAVYYCAVSVWQYSDHVYRGQGTQVTVSS,low polyreactivity
15,QVQLQESGGGLVQAGGSLRLSCAASGTITVLYKMGWFRQAPGKEREFVASINYGTSTYYADSVKGRFTVSRDSAKNTVYLQMNSLKPEDTAVYFCSAAFRWQDVYRYWGQGTQVTVSS,low polyreactivity
16,QVQLQESGGGLVQAGGSLRLSCAASGYIFPTAIMGWYLQATGKERKLVAAINPGSNTYYADSVKGRFTFSRDNAKNTVYLQMYSLKPEDAAVYYCAVSIWLEGTLDYWGQGTQVTVSS,low polyreactivity
17,QVQLQESGGGLVQAGGSLRLSCAASGYIPLAQTIGSYRQAPGKEREFVASIALGSSTYYTDSVKGSFTISRDNAKTTVYLQMNSLKPEDTAVYYCAARVGACYAHDYWGQGTQVTVSS,low polyreactivity
18,QVQLQESGGGLVQAGGSLRLSCAASGYISDGYVMGWYRQAPGKEREFVATISGGTTAYYADSVKGRFTISRDNAKNTVYLQMNSLKPEDTAVYYCAAETSYYWDYDYWGHGTQVTVSS,high polyreactivity
19,QVQLQESGGGLVQAGGSLRLSCAASGYISHADEMGWYRQAPGKVHELVASISNGGSTNYADSVKGRFTISRDNAKNTVYLQMNSLKSEDTAVYYCAAWTGQVDIHYYWGQGTQVTVSS,low polyreactivity
20,QVQLQESGGGLVQAGGSLRLSCAASGYISLAQTIGWYRQAPGTEREFVASIALGSSTYYTDSVKGSFTISRDNAKTTVYLQMNSLKPEDTAVYYCAARVGASYAHDYWGQGTQVTVSS,low polyreactivity
21,QVQLQESGGGLVQAGGSLRLSCAASGYISLAQTKGWYRQEPGKEREFVASIALGSSTYYTDSVKGSFTISRDNAKTTVYLQMNSVKPEDTAVYYCAARVGASYAHDFWGQGTQVTVSS,low polyreactivity
22,QVQLQESGGGLVQAGGSLRLSCAASGYISQSSVMGWYRQAPGKEREFVASISYGATTYYADSVKGRFTISRDNAKNTVYLQTNSPKPEDTAVYYCAVWVKRGFSHRYWGQGTQVTVSS,high polyreactivity

row,Sequence,polyreactivity (PSR sort gate)
1,QVQLQESGGGLVQAGGSLRLSCAASGYISSWYPKGWYRQAPGQEREFVATIAPGATTYYADSVKGRFTMSRDYAKNTVYLQMNSLKPEDTAVYYCAAGPENNDFYSYWGQGTQVTVSS,low polyreactivity
2,QVQLQESGGGLVQAGGSLRLSCAASGYNSFSGYMGRYRQAPGKEREFVDSITPGRSTYYADSVKGRFTISRDNAEITVYLQMNSLKPEDTGVYYCAADDSRTEQHDYWGQGTQVTVSS,high polyreactivity
3,QVQLQESGGGLVQAGGSLRLSCAASGYNSHADEMGWYRQAPGKEHELVASISNGGSTNYADSVKGRFTISRDNANNTVYLQMNSLKSEDTAVYYCADWTGEVDIHYYWGQGTQVTVSS,low polyreactivity
4,QVQLQESGGGLVQAGGSLRLSCAATGSIYHLHIMCWYRKAPGKERESVAAISYGTSTYYADSVKGRFTICRDNAKNTVYLQMNSPKPDDTAVYYCAALFLVYKHHHYWGEGTQVTVSS,low polyreactivity
5,QVQLQESGGGLVQAGGSLRLSCAPSGTITVLYKMGWFRQAPGKEGEFVASINYGTSTYYADSVKGRFTVSRDRAKNTVYLQMNSLKPEDTAVYYCAAAYRWQDVYRYWGQGTQVTVSS,low polyreactivity
6,QVQLQESGGGLVQAGGSLRLSCASSGSIFKVVDKGLYRQAPAKEREFVATIGEGGNTYYADSVKGRFTISRDNAKNTVYLQMNSLKPEDTAVYFYAVVLGTSYRYTYWGQGTQVTVSS,low polyreactivity
7,QVQLQESGGGLVQAGGSLRLSCAVSGTIFFPQDKGWYRQAPGREREYGAAIAEGTSTYYADSVKGRFTISRDNAKNTVYPQMYSLKPEDTEVNYCAAYRSTPQQFLYWGQGTQVTVSS,high polyreactivity
8,QVQLQESGGGLVQAGGSLRLTCAASGNISVTGFMGCYRQAPGKERELVASIGIGGTTYYADSVKGRFSISRDNAKNTVYLEMHSLKPEDTAVYYCAARYLYYAYSYWGQGTQVTVSS,low polyreactivity
9,QVQLQESGGGLVQAGGSLRLTCAASGSIFDGFNMGWYRQAPGKDREFVDAISYGASTYYADSVKGRFTVSRDNAINSVYLQMNSLKPEDTALYYWAVYDELYHVLVYWGRGTQVTVSS,low polyreactivity
10,QVQLQESGGGLVQAGGSLRLTCAASGTIFRFRYMGWPRQAPGKERELVAGINGGTTTYYADSVIGRFTISRDNAKNTVYLQRNSLKPDDTAVYNCAAGASRLTYYDYWGQGTQVTVSS,low polyreactivity
11,QVQLQESGGGLVQAGGSLRLWCAASRNISGSSDLGWYHQAPGKEREFVASITSGGTTYYADSVKGRFTISRDNAKNTVYLQMNSLKPEDTAVYYCAVGDPADAEFGYWGQGTQVTVSS,low polyreactivity
12,QVQLQESGGGLVQAGGSLRMSCAASGNIFDADIMGWYRQAPGKERELVASITDGRRTNYADSVKGRYTISRDSEKNTVYLQMNSLKPEDTAVYYCAAIAYPVVPTYFDYDSDYFHWGQGTQVTVIS,high polyreactivity
13,QVQLQESGGGLVQAGGSLRMSCAASGTIVSEANMGWYRQAPGKERELVATIGQGSTTNYADSVKGRFTISRDNAKNTVYLQMNSLKPEETAVYYCAVVTVDPVGFVYWGQGTQVTVSS,low polyreactivity
14,QVQLQESGGGLVQAGGSLRPRCAAGGTIFVSVNMGWYRHAPGEELEFVASITQGATTNYADSLIGRFTISRDNAKNTVYLQMNCQNQEDTAVYYCAVHESGGITFTYWGQGTQVTVSS,high polyreactivity
15,QVQLQESGGGLVQAGGSLRPSCAASGSISDGVPMGWYRQAPGEERELVATTVLGATTNYADSVKGRFTISRGNAKNTVYLQMNSLKPEETEVYYCAAPLRYDKGFSYWGQGTQVTVSS,low polyreactivity
16,QVQLQESGGGLVQAGGSLRQSYAASGYIFPSLAMGWYRQAPGKEREFVAAIGRGSTNNYADSVKGRFTISRDNAKNTAYQQMISLKPEDTAVYYCAAAASPLTRHLYWGQGTQVSVSS,low polyreactivity
17,QVQLQESGGGLVQAGGSMRLSCAASGSISELRPMGWYRQAPGKERELVAGISTGGSTNYADSVKGRFTISRDNAKNTVYLQMNSLKPEDTAVYYCAAALSNVRNVRSPYDYWGQGTQVTVSS,high polyreactivity
18,QVQLQESGGGLVQAGGTLRLSCAANGNISYSNPMGWYRQPPGKEREFVASINPGSTTNYMDSVKGRFTISRDNAKNTVYLQMNSLKPEDTAVYYCNSVFFKSRQGQMYYWGQGSQVTVSS,high polyreactivity
19,QVQLQESGGGLVQASGSIFHEPNMGWHRQAPGKERELVATISDGAITNYADSVKGRFTISRDNAKNTVYLQMNSLKPEDTAVYYCAVVVHLYTDLRYWGQDTQVTVSS,high polyreactivity
20,QVQLQESGGGLVQASGSIFHEPNMGWYRQAPGKERELVAGISSGANTYYADSVKGRFTISRDNAKNTVYLQMNSLKPEDTAVYHCAVVVHLYTDLRYWGQDTQVTVSS,high polyreactivity
21,QVQLQESGGGLVQAVASLRLSCEASVSISSLDYMGWYRQASGKERELVAAIDNGSTTYYADSVKGRLTISRDNAKYTVYLQMNSLKPEDTAVYFCAAVRGRGGTHAYWGQGTQVTVSG,low polyreactivity
22,QVQLQESGGGLVQAVGSLRLSCAASGNISDYYDMGWYRQAPGKERKFVAGIDFGAITNYADSVKGRFTISRDNAKNTEYLQMSSLKPEDTAVYYCAAGVYDWYAYDYWGQGTQVTVSS,high polyreactivity
